The values that follow come from patent US9988424 (DUKE UNIVERSITY, dated 2018).

The target of one test is T1, gp70 B.HXB2/BALV1V2 (murine leukemia virus; HIV-1).
T1 chain: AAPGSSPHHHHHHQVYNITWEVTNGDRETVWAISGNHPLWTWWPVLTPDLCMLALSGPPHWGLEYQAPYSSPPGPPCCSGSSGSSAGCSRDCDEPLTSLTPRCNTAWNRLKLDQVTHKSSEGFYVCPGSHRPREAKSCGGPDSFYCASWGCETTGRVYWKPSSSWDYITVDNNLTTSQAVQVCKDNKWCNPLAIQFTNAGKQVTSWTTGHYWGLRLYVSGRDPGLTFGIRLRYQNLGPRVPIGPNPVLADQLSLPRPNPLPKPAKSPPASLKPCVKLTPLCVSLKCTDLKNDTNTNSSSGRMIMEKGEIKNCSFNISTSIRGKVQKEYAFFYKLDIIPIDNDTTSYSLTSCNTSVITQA
Put plainly: ELISA. For orientation: An ELISA detects its analyte on a solid surface through an enzyme-linked reagent.

Test [1] addresses T2, gp70 B.HXB2/BALV1V2/N156QN160Q (murine leukemia virus; HIV-1).
T2 chain: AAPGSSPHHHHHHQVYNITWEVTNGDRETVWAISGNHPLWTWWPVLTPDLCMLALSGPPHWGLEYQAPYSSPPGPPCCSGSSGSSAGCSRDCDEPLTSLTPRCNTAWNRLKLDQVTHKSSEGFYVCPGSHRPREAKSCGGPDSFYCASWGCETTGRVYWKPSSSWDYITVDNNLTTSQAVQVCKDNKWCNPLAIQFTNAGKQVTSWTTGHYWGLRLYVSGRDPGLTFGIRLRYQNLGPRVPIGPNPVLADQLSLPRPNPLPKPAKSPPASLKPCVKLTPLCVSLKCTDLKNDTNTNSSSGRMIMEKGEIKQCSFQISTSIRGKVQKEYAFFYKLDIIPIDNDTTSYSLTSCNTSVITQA
Put plainly: ELISA.

Another test addresses T3, J08 B.HXB2/BALV1V2 (HIV-1).
T3 construct: also called J08 B.HXB/BAL V1V2
T3 chain: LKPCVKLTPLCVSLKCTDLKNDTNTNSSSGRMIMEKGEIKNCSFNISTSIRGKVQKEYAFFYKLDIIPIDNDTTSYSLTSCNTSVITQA
Put plainly: ELISA.

Test [2] deals with T4, J08 B.HXB2/BALV1V2N156QN160Q (HIV-1).
T4 chain: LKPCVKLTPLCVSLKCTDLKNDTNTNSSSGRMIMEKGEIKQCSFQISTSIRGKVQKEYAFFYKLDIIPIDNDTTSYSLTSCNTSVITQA
Nature of the test: ELISA.

A further test has as its target T5, gp70 B.CaseA2 V1/V2 (HIV-1 V1V2 on murine leukemia virus gp70).
T5 construct: also called B.gp70CaseA2 V1/V2; gp70 B.CaseAV1V2
T5 chain: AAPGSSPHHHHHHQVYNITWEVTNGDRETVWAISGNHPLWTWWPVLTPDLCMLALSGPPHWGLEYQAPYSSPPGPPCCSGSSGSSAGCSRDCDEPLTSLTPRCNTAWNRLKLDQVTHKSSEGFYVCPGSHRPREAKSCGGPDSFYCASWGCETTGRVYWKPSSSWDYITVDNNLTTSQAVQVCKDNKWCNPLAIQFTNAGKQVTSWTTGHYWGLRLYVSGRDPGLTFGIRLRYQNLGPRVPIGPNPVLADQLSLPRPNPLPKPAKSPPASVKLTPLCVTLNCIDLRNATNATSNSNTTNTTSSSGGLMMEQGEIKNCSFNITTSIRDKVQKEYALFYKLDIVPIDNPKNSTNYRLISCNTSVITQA
Put plainly: ELISA.

A further test addresses B.63521_V1/V2 tags. Nature of the test: ELISA, OD405 at 10 ug/ml.
The next test has as its target T6, SIV CPZ US-1 gp140CF (SIVcpz).
T6 construct: also called US-1 SIVCPZ gp140CF
T6 chain: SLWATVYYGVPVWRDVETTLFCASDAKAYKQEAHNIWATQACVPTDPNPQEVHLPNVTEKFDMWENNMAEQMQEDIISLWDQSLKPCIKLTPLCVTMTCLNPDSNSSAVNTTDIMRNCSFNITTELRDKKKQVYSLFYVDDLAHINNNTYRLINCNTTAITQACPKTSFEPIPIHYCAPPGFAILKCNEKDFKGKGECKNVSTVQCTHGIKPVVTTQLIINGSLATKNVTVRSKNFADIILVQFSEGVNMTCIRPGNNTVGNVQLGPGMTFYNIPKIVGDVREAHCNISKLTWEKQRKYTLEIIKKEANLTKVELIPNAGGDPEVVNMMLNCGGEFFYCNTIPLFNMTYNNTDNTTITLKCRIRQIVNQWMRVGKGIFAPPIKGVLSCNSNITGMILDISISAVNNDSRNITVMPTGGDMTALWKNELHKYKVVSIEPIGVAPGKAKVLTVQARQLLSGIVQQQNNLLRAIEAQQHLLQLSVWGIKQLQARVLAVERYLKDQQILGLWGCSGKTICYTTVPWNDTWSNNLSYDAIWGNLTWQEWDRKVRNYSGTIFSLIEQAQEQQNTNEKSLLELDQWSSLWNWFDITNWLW
Put plainly: ELISA, OD405 at 10 ug/ml.

A further test has as its target D.9009SA V1/V2 tags. Nature of the test: ELISA, OD405 at 10 ug/ml.
The next test addresses T7, gp70 C.1086 V1/V2 (HIV-1 V1V2 on murine leukemia virus gp70).
T7 construct: also called C.gp70 1086C V1V2; C.1086gp70V1V2
T7 chain: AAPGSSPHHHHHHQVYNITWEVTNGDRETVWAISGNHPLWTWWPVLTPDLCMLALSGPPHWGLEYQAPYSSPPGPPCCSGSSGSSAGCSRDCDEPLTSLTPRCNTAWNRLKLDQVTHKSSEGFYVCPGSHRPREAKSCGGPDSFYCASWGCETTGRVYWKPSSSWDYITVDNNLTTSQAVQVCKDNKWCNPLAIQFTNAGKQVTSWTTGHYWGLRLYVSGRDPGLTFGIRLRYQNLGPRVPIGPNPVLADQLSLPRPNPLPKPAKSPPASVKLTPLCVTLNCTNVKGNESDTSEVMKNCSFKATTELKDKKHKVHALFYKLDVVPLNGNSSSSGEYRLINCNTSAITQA
Put plainly: ELISA, OD405 at 10 ug/ml.

In a further test the target is B.Case A2 V1/V2 tags. Nature of the test: ELISA, OD405 at 10 ug/ml.
The target of another test is B.con gp140CF. Put plainly: ELISA, OD405 at 10 ug/ml.
In another test the target is AE.con gp140CF. Nature of the test: ELISA, OD405 at 10 ug/ml.

Bounds are passed on as bounds.

B1: 697D (antibody, V domains shown)
VH: QVQLVQSGAEVKKPGSSVKVSCKASGGNFNTYTISWVRQAPGQGLEWMGRIIPIFGIVNPAQKFPGRVTINVDKSTNTAYMELSSLRSEDTAVYYCATSGVGLHFGYFDYWGQGTQVTVSS
VL: QSVLTQPPSVSGAPGQRVTISCTGSSSNIGAHYDVHWYQQLPGTAPKLLIYGNSNRPSGVPDRFSGSKSGTSASLAITGLQAEDEADYYCQSYDSSLSGYVFGTGTKVTVL
notes: also called mAb 697D; V2 conformational mAb 697D
On to B1, for which the concentration giving a half-maximal response (EC50) in the test with gp70 B.HXB2/BALV1V2 was 0.64 nM; in test [1], over 667 nM; with J08 B.HXB2/BALV1V2, 0.12 nM; in test [2], 66 nM; in the test with gp70 B.CaseA2 V1/V2, 0.05 nM.

B2: 697D reverted unmutated ancestor antibody (antibody, V domains shown)
VH: QVQLVQSGAEVKKPGSSVKVSCKASGGTFSSYTISWVRQAPGQGLEWMGRIIPILGIANYAQKFQGRVTITADKSTSTAYMELSSLRSEDTAVYYCATSGVGLHFGYFDYWGQGTLVTVSS
VL: QSVLTQPPSVSGAPGQRVTISCTGSSSNIGAGYDVHWYQQLPGTAPKLLIYGNSNRPSGVPDRFSGSKSGTSASLAITGLQAEDEADYYCQSYDSSLSGYVFGTGTKVTVL
notes: also called 697D RUA
In the case of B2, the binding result in the test with B.63521_V1/V2 tags, in the test with SIV CPZ US-1 gp140CF, in the test with D.9009SA V1/V2 tags, with gp70 C.1086 V1/V2, with B.Case A2 V1/V2 tags and in the test with B.con gp140CF was “no binding (tested: 10 ug/ml)” each time. Further, the binding result with AE.con gp140CF is listed as “no binding (tested: 10 ug/ml)”.

Usually EC50 stands for the concentration needed to bring the measured effect to its halfway point. Higher therefore signals a less potent agent.
